Tests used:
[1] = target: FBG-like domain of human Tenascin-W with Arg1220 changed to alanine (FBG-W^RKKA) (human); experiment: SPR; Biacore T200; FBG-like domains immobilised on CM5 by amine coupling; mature TGF-β1 injected in single-cycle mode; PBS with 0.05% P-20, 25°C, 30 µl/min; heterogeneous ligand model; apparent constants
[2] = target: FBG-like domain of human Tenascin-X (human); experiment: as above

KD1 (heterogeneous ligand model, site 1) [1]: 1.89 µM
KD2 (heterogeneous ligand model, site 2) [1]: 6.48 µM
ka1 (heterogeneous ligand model, site 1) [1]: 1040 M⁻¹ s⁻¹
ka2 (heterogeneous ligand model, site 2) [1]: 14300 M⁻¹ s⁻¹
kd1 (heterogeneous ligand model, site 1) [1]: 0.00196 s⁻¹
kd2 (heterogeneous ligand model, site 2) [1]: 0.0926 s⁻¹
ka1 (heterogeneous ligand model, site 1) [2]: 8080 M⁻¹ s⁻¹
ka2 (heterogeneous ligand model, site 2) [2]: 207000 M⁻¹ s⁻¹
kd1 (heterogeneous ligand model, site 1) [2]: 0.00276 s⁻¹
kd2 (heterogeneous ligand model, site 2) [2]: 0.0845 s⁻¹
Substance: recombinant human mature TGF-β1 (ligand)
